{"source": "patent US20250057927A1", "about": "“ALPHA-1 A[…] FROM YEAST FOR USE IN THE TREATMENT OF VIRAL INFECTIONS” (priority 2021, published 2025)", "molecules": {"B1": {"name": "rec α1AT Fraction 52 (protein)", "chain": "EDPQGDAAQKTDTSHHDQDHPTFNKITPNLAEFAFSLYRQLAHQSNSTNIFFSPVSIATAFAMLSLGTKADTHDEILEGLNFNLTEIPEAQIHEGFQELLRTLNQPDSQLQLTTGNGLFLSEGLKLVDKFLEDVKKLYHSEAFTVNFGDTEEAKKQINDYVEKGTQGKIVDLVKELDRDTVFALVNYIFFKGKWERPFEVKDATEEEDFHVDQVTTVKVPMMKRLGMFNIQHCKKLSSWVLLMKYLGNATAIFFLPDEGKLQHLENELTHDIITKFLENEDRRSASLHLPKLSITGTYDLKSVLGQLGITKVFSNGADLSGVTEEAPLKLSKAVHKAVLTIDEKGTEAAGAMFLEAIPMSIPPEVKFNKPFVFLMIEQNTKSPLFMGKVVNPTQK"}, "B2": {"name": "rhAAT (protein)", "chain": "EDPQGDAAQKTDTSHHDQDHPTFNKITPNLAEFAFSLYRQLAHQSNSTNIFFSPVSIATAFAMLSLGTKADTHDEILEGLNFNLTEIPEAQIHEGFQELLRTLNQPDSQLQLTTGNGLFLSEGLKLVDKFLEDVKKLYHSEAFTVNFGDTEEAKKQINDYVEKGTQGKIVDLVKELDRDTVFALVNYIFFKGKWERPFEVKDATEEEDFHVDQVTTVKVPMMKRLGMFNIQHCKKLSSWVLLMKYLGNATAIFFLPDEGKLQHLENELTHDIITKFLENEDRRSASLHLPKLSITGTYDLKSVLGQLGITKVFSNGADLSGVTEEAPLKLSKAVHKAVLTIDEKGTEAAGAMFLEAIPMSIPPEVKFNKPFVFLMIEQNTKSPLFMGKVVNPTQK"}, "B3": {"name": "rec α1AT Fraction 53 (protein)", "chain": "EDPQGDAAQKTDTSHHDQDHPTFNKITPNLAEFAFSLYRQLAHQSNSTNIFFSPVSIATAFAMLSLGTKADTHDEILEGLNFNLTEIPEAQIHEGFQELLRTLNQPDSQLQLTTGNGLFLSEGLKLVDKFLEDVKKLYHSEAFTVNFGDTEEAKKQINDYVEKGTQGKIVDLVKELDRDTVFALVNYIFFKGKWERPFEVKDATEEEDFHVDQVTTVKVPMMKRLGMFNIQHCKKLSSWVLLMKYLGNATAIFFLPDEGKLQHLENELTHDIITKFLENEDRRSASLHLPKLSITGTYDLKSVLGQLGITKVFSNGADLSGVTEEAPLKLSKAVHKAVLTIDEKGTEAAGAMFLEAIPMSIPPEVKFNKPFVFLMIEQNTKSPLFMGKVVNPTQK"}}, "tested_on": "lentiviral pseudoparticles harbouring the SARS-CoV-2 spike protein of Wuhan Hu-1 isolate", "type": "cell-based"}
{"molecule": "Prolastin", "values": [{"measurement": "IC50 of inhibiting pseudoparticle entry into Caco2 cells", "result": 3160, "unit": "µg/mL"}, {"measurement": "estimated IC90", "result": 20000, "unit": "µg/mL"}, {"measurement": "pseudoparticle entry", "result": "about 10%"}]}
{"molecule": "B1", "values": [{"measurement": "inhibition of pseudoparticle entry compared to Prolastin", "result": "greater inhibition"}, {"measurement": "inhibition of the entry of SARS-CoV-2", "result": "inhibit the entry of SARS-CoV-2 similar to Prolastin"}]}
{"molecule": "B2", "values": [{"measurement": "estimated IC90", "result": 8000, "unit": "µg/mL"}, {"measurement": "inhibition of pseudoparticle entry", "result": "complete inhibition"}]}
{"molecule": "B3", "values": [{"measurement": "activity in the pseudoparticle assay compared to Prolastin", "result": "greater activity"}, {"measurement": "inhibition of pseudoparticle entry compared to Prolastin", "result": "greater inhibition"}, {"measurement": "inhibition of the entry of SARS-CoV-2", "result": "inhibit the entry of SARS-CoV-2 similar to Prolastin"}]}
